For one molecule, stoichiometry N (OsFKBP12 per OsTORKD) and Kd results are on record in paper PMC11732086 (2024).

In assay [1] the target is T1, MBP-OsTORKD (rice, UniProt Q0DJS1 1896-2465).
T1 chain: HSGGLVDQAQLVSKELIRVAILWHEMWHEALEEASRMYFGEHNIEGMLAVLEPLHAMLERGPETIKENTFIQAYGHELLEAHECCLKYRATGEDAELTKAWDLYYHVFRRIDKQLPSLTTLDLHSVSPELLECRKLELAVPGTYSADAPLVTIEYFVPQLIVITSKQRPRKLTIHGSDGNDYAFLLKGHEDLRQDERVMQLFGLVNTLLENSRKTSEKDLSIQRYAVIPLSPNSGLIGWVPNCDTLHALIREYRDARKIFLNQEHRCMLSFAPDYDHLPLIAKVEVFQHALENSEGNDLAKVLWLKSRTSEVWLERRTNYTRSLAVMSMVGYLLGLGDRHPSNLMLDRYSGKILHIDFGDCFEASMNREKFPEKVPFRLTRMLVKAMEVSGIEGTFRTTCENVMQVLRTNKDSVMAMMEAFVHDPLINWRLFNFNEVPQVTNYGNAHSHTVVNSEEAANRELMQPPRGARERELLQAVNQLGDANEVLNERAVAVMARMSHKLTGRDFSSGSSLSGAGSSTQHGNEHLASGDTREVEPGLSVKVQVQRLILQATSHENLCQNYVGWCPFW
Nature of the assay: ITC; His-OsFKBP12 in the syringe (10 mM) titrated into MBP-OsNIN8, MBP-OsNIN8m or MBP-OsTORKD in the cell (0.1 mM); 25°C; 20 injections of 2.5 μL, interval 200 s; proteins dialysed in 50 mM potassium phosphate pH 6.4.

Assay [2] has as its target T1, MBP-OsTORKD. In words: ITC. (In general: Isothermal titration calorimetry measures the heat released or taken up as one component is titrated into another.)

B1: His-OsFKBP12 (natural protein)
chain: MGFEKTILKAGTGPKPVKGQKVTVHCTGFGKDNDLAKKFWSTKDAGQEPFSFNIGQGSVIKGWDEGVMTMQVGEVARIQCTPDYAYGASGFPAWGIRPNSVLVFEIEVLSAQ
In the case of B1, the stoichiometry N (OsFKBP12 per OsTORKD) with MBP-OsTORKD [1] was 6. For the same molecule, the Kd (commonly the constant that tells how readily two partners part at equilibrium) with MBP-OsTORKD [2] was 81.8 µM.
